Laboratory results taken from patent US20100209945A1.

Biological target: the different types of antibodies (different animal originated antibodies of Example 2)
Assay: SPR (Biacore 3000), hybrid on CM-5 chip, antibody in solution

SPR reaction value: < 200 RU
Binder: RTYRTYRTYRTYKKKG (C-terminal NH(CH2CH2O)nCH2CH2CO-Cys-NH2 (PEG linker and cysteine amide))
